Measurements taken from patent US20220363757A1.

Columns and labels:
Test in all cases: SPR, Fab over captured mutant LAG-3-Fc
[1] = target: human LAG-3 domain 1-2 Fc fusion, point mutation #42 R95A (human) (UniProt P18627)
[2] = target: human LAG-3 domain 1-2 Fc fusion, chimeric construct #21 (mutated region AA 128-137) (human) (UniProt P18627)
[3] = target: human LAG-3 domain 1-2 Fc fusion, point mutation #60 P118A (human) (UniProt P18627)
[4] = target: human LAG-3 domain 1-2 Fc fusion, chimeric construct #16 (mutated region AA 98-105) (human) (UniProt P18627)
Chain of human LAG-3 domain 1-2 Fc fusion, chimeric construct #16 (mutated region AA 98-105) (human) (P18627 other isoform, or with tags, fused parts or gaps mutant): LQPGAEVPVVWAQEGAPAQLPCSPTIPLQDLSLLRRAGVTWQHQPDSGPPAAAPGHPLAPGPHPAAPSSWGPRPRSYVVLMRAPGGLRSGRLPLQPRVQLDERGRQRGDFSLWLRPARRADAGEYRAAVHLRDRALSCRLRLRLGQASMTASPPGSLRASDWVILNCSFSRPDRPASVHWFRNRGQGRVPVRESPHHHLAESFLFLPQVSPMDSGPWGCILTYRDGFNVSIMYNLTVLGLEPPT

[5] = target: human LAG-3 domain 1-2 Fc fusion, point mutation #13 R58A (human) (UniProt P18627)
[6] = target: human LAG-3 domain 1-2 Fc fusion, chimeric construct #5 (mutated region AA 46-51) (human) (UniProt P18627)
[7] = target: human LAG-3 domain 1-2 Fc fusion, chimeric construct #18 (mutated region AA 114-119) (human) (UniProt P18627)
Chain of human LAG-3 domain 1-2 Fc fusion, chimeric construct #18 (mutated region AA 114-119) (human) (P18627 other isoform, or with tags, fused parts or gaps mutant): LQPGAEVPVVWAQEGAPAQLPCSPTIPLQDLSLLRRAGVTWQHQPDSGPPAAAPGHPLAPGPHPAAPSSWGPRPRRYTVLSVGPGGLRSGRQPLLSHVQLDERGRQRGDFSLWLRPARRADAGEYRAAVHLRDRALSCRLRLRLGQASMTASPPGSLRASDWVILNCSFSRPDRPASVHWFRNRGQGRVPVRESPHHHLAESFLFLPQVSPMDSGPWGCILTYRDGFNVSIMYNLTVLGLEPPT

[8] = target: human LAG-3 domain 1-2 Fc fusion, point mutation #10 S54A (human) (UniProt P18627)
Chain of human LAG-3 domain 1-2 Fc fusion, point mutation #10 S54A (human) (P18627 23-266 S54A): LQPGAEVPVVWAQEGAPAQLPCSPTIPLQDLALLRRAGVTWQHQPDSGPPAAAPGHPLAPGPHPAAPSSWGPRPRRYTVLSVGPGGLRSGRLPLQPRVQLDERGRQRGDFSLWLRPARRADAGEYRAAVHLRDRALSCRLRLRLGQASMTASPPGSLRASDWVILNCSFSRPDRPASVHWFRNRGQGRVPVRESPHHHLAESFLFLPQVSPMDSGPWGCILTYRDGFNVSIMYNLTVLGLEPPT

[9] = target: human LAG-3 domain 1-2 Fc fusion, chimeric construct #23 (mutated region AA 148-152) (human) (UniProt P18627)
[10] = target: human LAG-3 domain 1-2 Fc fusion, point mutation #33 P86A (human) (UniProt P18627)
[11] = target: human LAG-3 domain 1-2 Fc fusion, chimeric construct #15 (mutated region AA 95-100) (human) (UniProt P18627)
Chain of human LAG-3 domain 1-2 Fc fusion, chimeric construct #15 (mutated region AA 95-100) (human) (P18627 other isoform, or with tags, fused parts or gaps mutant): as the sequence (P18627 23-266 S54A) above, with A32S, R73G, R76S, T78V counted along it

[12] = target: human LAG-3 domain 1-2 Fc fusion, point mutation #16 H65A (human) (UniProt P18627)
Chain of human LAG-3 domain 1-2 Fc fusion, point mutation #16 H65A (human) (P18627 23-266 H65A): as the sequence (P18627 23-266 S54A) above, with A32S, H43A counted along it

[13] = target: human LAG-3 domain 1-2 Fc fusion, point mutation #27 L80A (human) (UniProt P18627)
Chain of human LAG-3 domain 1-2 Fc fusion, point mutation #27 L80A (human) (P18627 23-266 L80A): as the sequence (P18627 23-266 S54A) above, with A32S, L58A counted along it

[14] = target: human LAG-3 domain 1-2 Fc fusion, point mutation #77 R148A (human) (UniProt P18627)
Chain of human LAG-3 domain 1-2 Fc fusion, point mutation #77 R148A (human) (P18627 23-266 R148A): as the sequence (P18627 23-266 S54A) above, with A32S, R126A counted along it

[15] = target: human LAG-3 domain 1-2 Fc fusion, point mutation #65 R125A (human) (UniProt P18627)
Chain of human LAG-3 domain 1-2 Fc fusion, point mutation #65 R125A (human) (P18627 23-266 R125A): as the sequence (P18627 23-266 S54A) above, with A32S, R103A counted along it

[16] = target: human LAG-3 domain 1-2 Fc fusion, point mutation #46 Y99A (human) (UniProt P18627)
Chain of human LAG-3 domain 1-2 Fc fusion, point mutation #46 Y99A (human) (P18627 23-266 Y99A): as the sequence (P18627 23-266 S54A) above, with A32S, Y77A counted along it

[17] = target: human LAG-3 domain 1-2 Fc fusion, point mutation #62 Q121A (human) (UniProt P18627)
[18] = target: human LAG-3 domain 1-2 Fc fusion, point mutation #20 A73S (human) (UniProt P18627)
[19] = target: human LAG-3 domain 1-2 Fc fusion, point mutation #35 A88S (human) (UniProt P18627)
Chain of human LAG-3 domain 1-2 Fc fusion, point mutation #35 A88S (human) (P18627 23-266 A88S): as the sequence (P18627 23-266 S54A) above, with A32S, A66S counted along it

[20] = target: human LAG-3 domain 1-2 Fc fusion, point mutation #73 R137A (human) (UniProt P18627)
[21] = target: human LAG-3 domain 1-2 Fc fusion, point mutation #67 R127A (human) (UniProt P18627)
Chain of human LAG-3 domain 1-2 Fc fusion, point mutation #67 R127A (human) (P18627 23-266 R127A): as the sequence (P18627 23-266 S54A) above, with A32S, R105A counted along it

[22] = target: human LAG-3 domain 1-2 Fc fusion, point mutation #58 P115A (human) (UniProt P18627)
Chain of human LAG-3 domain 1-2 Fc fusion, point mutation #58 P115A (human) (P18627 23-266 P115A): as the sequence (P18627 23-266 S54A) above, with A32S, P93A counted along it

[23] = target: human LAG-3 domain 1-2 Fc fusion, chimeric construct #8 (mutated region AA 59-66) (human) (UniProt P18627)
Chain of human LAG-3 domain 1-2 Fc fusion, chimeric construct #8 (mutated region AA 59-66) (human) (P18627 other isoform, or with tags, fused parts or gaps mutant): as the sequence (P18627 23-266 S54A) above, with A32S, A37G, G38W, Q44R counted along it

[24] = target: human LAG-3 domain 1-2 Fc fusion, chimeric construct #1 (mutated region AA 23-30) (human) (UniProt P18627)
[25] = target: human LAG-3 domain 1-2 Fc fusion, point mutation #4 S45A (human) (UniProt P18627)
[26] = target: human LAG-3 domain 1-2 Fc fusion, point mutation #3 P43A (human) (UniProt P18627)
Chain of human LAG-3 domain 1-2 Fc fusion, point mutation #3 P43A (human) (P18627 23-266 P43A): as the sequence (P18627 23-266 S54A) above, with P21A, A32S counted along it

[27] = target: human LAG-3 domain 1-2 Fc fusion, point mutation #78 R154A (human) (UniProt P18627)
Chain of human LAG-3 domain 1-2 Fc fusion, point mutation #78 R154A (human) (P18627 23-266 R154A): as the sequence (P18627 23-266 S54A) above, with A32S, R132A counted along it

[28] = target: human LAG-3 domain 1-2 Fc fusion, point mutation #69 R129A (human) (UniProt P18627)
[29] = target: human LAG-3 domain 1-2 Fc fusion, point mutation #37 S90A (human) (UniProt P18627)
[30] = target: human LAG-3 domain 1-2 Fc fusion, chimeric construct #10 (mutated region AA 70-77) (human) (UniProt P18627)
Chain of human LAG-3 domain 1-2 Fc fusion, chimeric construct #10 (mutated region AA 70-77) (human) (P18627 other isoform, or with tags, fused parts or gaps mutant limits assumed): as the sequence (P18627 23-266 S54A) above, with A32S, G48D, P49Q, A52S, A53I, G55A counted along it

[31] = target: human LAG-3 domain 1-2 Fc fusion, point mutation #43 P96A (human) (UniProt P18627)
Chain of human LAG-3 domain 1-2 Fc fusion, point mutation #43 P96A (human) (P18627 23-266 P96A): as the sequence (P18627 23-266 S54A) above, with A32S, P74A counted along it

[32] = target: human LAG-3 domain 1-2 Fc fusion, point mutation #18 P67A (human) (UniProt P18627)
Chain of human LAG-3 domain 1-2 Fc fusion, point mutation #18 P67A (human) (P18627 23-266 P67A): as the sequence (P18627 23-266 S54A) above, with A32S, P45A counted along it

[33] = target: human LAG-3 domain 1-2 Fc fusion, point mutation #56 G112A (human) (UniProt P18627)

Chain of human LAG-3 domain 1-2 Fc fusion, point mutation #42 R95A (human) (P18627 23-266 R95A): as the sequence (P18627 23-266 S54A) above, with A32S, R73A counted along it

**Q.** Fab fragment of 25F7-Lag3.5 analogue was tested. Which KD mutant/KD wild type [1] did it give?
**A.** 1.9 fold

**Q.** What about the KD mutant/KD wild type [2] of the same substance?
**A.** 1.4 fold

**Q.** What about the KD mutant/KD wild type [3] of the same substance?
**A.** 0.8 fold

**Q.** What about the KD mutant/KD wild type [4] of the same substance?
**A.** 1.7 fold

**Q.** And the KD mutant/KD wild type [5]?
**A.** 0.8 fold

**Q.** And the KD mutant/KD wild type [6]?
**A.** 1.3 fold

**Q.** And the KD mutant/KD wild type [7]?
**A.** 0.8 fold

**Q.** What about the KD mutant/KD wild type [8] of the same substance?
**A.** 0.8 fold

**Q.** And the KD mutant/KD wild type [9]?
**A.** 0.8 fold

**Q.** What about the KD mutant/KD wild type [10] of the same substance?
**A.** 2.7 fold

**Q.** And the KD mutant/KD wild type [11]?
**A.** 1.5 fold

**Q.** And the KD mutant/KD wild type [12]?
**A.** 1.2 fold

**Q.** And the KD mutant/KD wild type [13]?
**A.** 0.7 fold

**Q.** And the KD mutant/KD wild type [14]?
**A.** 1.2 fold

**Q.** What about the KD mutant/KD wild type [15] of the same substance?
**A.** 0.9 fold

**Q.** What about the KD mutant/KD wild type [16] of the same substance?
**A.** 1 fold

**Q.** And the KD mutant/KD wild type [17]?
**A.** 0.9 fold

**Q.** And the KD mutant/KD wild type [18]?
**A.** 0.8 fold

**Q.** And the KD mutant/KD wild type [19]?
**A.** 3.5 fold

**Q.** And the KD mutant/KD wild type [20]?
**A.** 1 fold

**Q.** And the KD mutant/KD wild type [21]?
**A.** 0.7 fold

**Q.** What about the KD mutant/KD wild type [22] of the same substance?
**A.** 1 fold

**Q.** What about the KD mutant/KD wild type [23] of the same substance?
**A.** 1.3 fold

**Q.** And the KD mutant/KD wild type [24]?
**A.** 1.3 fold

**Q.** What about the KD mutant/KD wild type [25] of the same substance?
**A.** 1 fold

**Q.** What about the KD mutant/KD wild type [26] of the same substance?
**A.** 1.2 fold

**Q.** What about the KD mutant/KD wild type [27] of the same substance?
**A.** 0.8 fold

**Q.** And the KD mutant/KD wild type [28]?
**A.** 1.2 fold

**Q.** What about the KD mutant/KD wild type [29] of the same substance?
**A.** 1 fold

**Q.** What about the KD mutant/KD wild type [30] of the same substance?
**A.** 1 fold

**Q.** And the KD mutant/KD wild type [31]?
**A.** 0.7 fold

**Q.** What about the KD mutant/KD wild type [32] of the same substance?
**A.** 1.1 fold

**Q.** What about the KD mutant/KD wild type [33] of the same substance?
**A.** 0.9 fold
